B1: Receptor-type tyrosine-protein phosphatase alpha (Mus musculus), P18052 (parent)
chain: MDSWFILVLFGSGLIHVSANNATTVSPSLGTTRLIKTSTTELAKEENKTSNSTSSVISLSVAPTFSPNLTLEPTYVTTVNSSHSDNGTRRAASTESGGTTISPNGSWLIENQFTDAITEPWEGNSSTAATTPETFPPADETPIIAVMVALSSLLVIVFIIIVLYMLRFKKYKQAGSHSNSFRLSNGRTEDVEPQSVPLLARSPSTNRKYPPLPVDKLEEEINRRMADDNKLFREEFNALPACPIQATCEAASKEENKEKNRYVNILPFLSLAVSKDAVKALNKTTPLLERRFIGKSNSRGCLSDDHSRVHLTPVEGVPDSDYINASFINGYQEKNKFIAAQGPKEETVNDFWRMIWEQNTATIVMVTNLKERKECKCAQYWPDQGCWTYGNVRVSVEDVTVLVDYTVRKFCIQQVGDVTNRKPQRLITQFHFTSWPDFGVPFTPIGMLKFLKKVKACNPQYAGAIVVHCSAGVGRTGTFVVIDAMLDMMHSERKVDVYGFVSRIRAQRCQMVQTDMQYVFIYQALLEHYLYGDTELEVTSLETHLQKIYNKIPGTSNNGLEEEFKKLTSIKIQNDKMRTGNLPANMKKNRVLQIIPYEFNRVIIPVKRGEENTDYVNASFIDGYRQKDSYIASQGPLLHTIEDFWRMIWEWKSCSIVMLTELEERGQEKCAQYWPSDGLVSYGDITVELKKEEECESYTVRDLLVTNTRENKSRQIRQFHFHGWPEVGIPSDGKGMINIIAAVQKQQQQSGNHPITVHCSAGAGRTGTFCALSTVLERVKAEGILDVFQTVKSLRLQRPHMVQTLEQYEFCYKVVQEYIDAFSDYANFK

In this assay the parent is B1. As to conditions: with src_mouse Src.
Regarding Y825F, the “effect of a mutation on the interaction” value was “disrupting interaction”.

These data come from IntAct's records for PubMed 7518772.
